Results as given in patent US20250101107A1 (REPERTOIRE IMMUNE MEDICINES, published 2025).

Target: T1, mouse CD8 on mouse cells (mouse, UniProt P01731 28-247)
T1 construct: whole, on cells; Carried by CD8+ T cells and CD8+ dendritic cells of C57BL/6 mice, read ex vivo after dosing; also called mCD8
Assay: in vivo, B16F10 tumour-bearing mice, flow cytometry of peripheral blood 4 days after the first i.v. dose; % IL-12p40+ of CD8+ T cells
Procedure: Mice were injected weekly for a total of 4 doses, at a dose equivalent to 10 μg of recombinant IL12. Tumor volume was measured twice per week, and mice were euthanized if tumor volume exceeded 2000 mm³. […] Specifically, in the MC38 model, treatment with the CD8IgG-IL12 (LC) Clone 2 construct controlled tumor growth up to day 21 and yielded 3/8 complete responders, whereas treatment with the CD8IgG-IL12 (1×HC) construct controlled tumor growth for the entire duration of the study and yielded 7/8 complete responders (FIGS. 6A-6C). In the B16-F10 model, which is typically less responsive to immunotherapy, both constructs limited tumor growth for up to 14 days after the initial dose (FIGS. 7A-7C).
In the same study, the two anti-CD8:IL-12 fusion constructs were also evaluated for their ability to be retained in tissues. Peripheral blood cells were collected from MC38 and B16-F10 tumor-bearing mice 4 days after administration of the first dose of the IL-12 construct. Samples were analyzed by flow cytometry. In the case of the MC38 tumor-bearing mice, IL-12 was detected on the surface of CD8⁺ T cells 4 days post-treatment with either of the two anti-CD8:IL-12 fusion protein constructs, but not on the surface of CD4⁺ T cells or NK cells (FIG. 8A). […]

T1 sequence (P01731 28-247): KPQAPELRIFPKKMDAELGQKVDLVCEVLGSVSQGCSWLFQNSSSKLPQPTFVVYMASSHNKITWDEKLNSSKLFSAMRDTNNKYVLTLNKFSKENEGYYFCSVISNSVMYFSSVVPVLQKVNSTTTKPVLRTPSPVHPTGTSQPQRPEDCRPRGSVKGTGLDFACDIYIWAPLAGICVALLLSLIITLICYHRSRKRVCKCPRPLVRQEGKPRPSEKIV

binding result: no binding
B1: rIL-12 (ligand)
alpha: RVIPVSGPARCLSQSRNLLKTTDDMVKTAREKLKHYSCTAEDIDHEDITRDQTSTLKTCLPLELHKNESCLATRETSSTTRGSCLPPQKTSLMMTLCLGSIYEDLKMYQTEFQAINAALQNHNHQQIILDKGMLVAIDELMQSLNHNGETLRQKPPVGEADPYRVKMKLCILLHAFSTRVVTINRVMGYLSSA
beta: MWELEKDVYVVEVDWTPDAPGETVNLTCDTPEEDDITWTSDQRHGVIGSGKTLTITVKEFLDAGQYTCHKGGETLSHSHLLLHKKENGIWSTEILKNFKNKTFLKCEAPNYSGRFTCSWLVQRNMDLKFNIKSSSSSPDSRAVTCGMASLSAEKVTLDQRDYEKYSVSCQEDVTCPTAEETLPIELALEARQQNKYENYSTSFFIRDIIKPDPPKNLQMKPLKNSQVEVSWEYPDSWSTPHSYFSLKFFVRIQRKKEKMKETEEGCNQKGAFLVEKTSTEVQCKGGNVCVQAQDRYYNSSCSKWACVPCRVRS
notes: also called rmIL-12; non-targeted recombinant mouse IL-12; copies: 1 + 1
